From patent US8734776B2 (ZymoGenetics, Inc., priority 2003, dated 2014)
Like-named read-outs stand apart in the source and are kept apart here.

Columns and labels:
parainfluenza virus = assay type: cell-based; settings: MA-104 cells
IL-28RA mRNA = experiment: Semi-quantitative RT-PCR of IL-28RA, IFNAR2 and CRF2-4 mRNA; assay type: cell-based, human; settings: HepG2 cells + cytokine
Method: In order to further examine the mRNA distribution for IL-28RA, semi-quantitative RT-PCR was performed using the SDS 7900HT system (Applied Biosystems, CA). One-step RT-PCR was performed using 100 ng total RNA for each sample and gene-specific primers. A standard curve was generated for each primer set using Bjab RNA and all sample values were normalized to HPRT. The normalized values for IFNAR2 and CRF2-4 are also shown.

west nile virus = assay type: cell-based; settings: Vero cells
[1] = tested on: venezuelan equine encephalitis virus; assay type: cell-based; settings: Vero cells
vaccinia virus = assay type: cell-based; settings: Vero cells
[2] = tested on: ISG gene expression (OAS, Pkr, Mx1); experiment: ISG gene induction in liver, spleen and blood of injected mice; assay type: in vivo, mouse; settings: for OAS (24 hr): mice, expression relative to internal HPRT; for OAS- 1 hr: 1 hr after single injection of 250 μg i.v.; for OAS- 1 hr / OAS-6 hr / OAS-24 hr / OAS-48 hr: average of 5 animals; for OAS-6 hr: 6 hr after single injection of 250 μg i.v.; for OAS-24 hr: 24 hr after single injection of 250 μg i.v.; for OAS-48 hr: 48 hr after single injection of 250 μg i.v.
Method: In addition, E. coli derived IL-29 was also tested in in vivo assays as described above using MetIL-29C172S-PEG and MetIL-29-PEG. At various time points and at different doses, ISG gene induction was measured in the blood, spleen and livers of the mice.
Mice were sacrificed at various time points (1 hr-48 hr). Spleens and livers were isolated from mice, and RNA was isolated. RNA was also isolated from the blood cells. The cells were pelleted and RNA isolated from pellets using RNAEasy®-kit (Qiagen). RNA was treated with DNase (Amicon) to rid RNA of any contaminating DNA. cDNA was generated using Perkin-Elmer RT mix (Perkin-Elmer). ISG gene induction was measured by real-time PCR using primers and probes specific for mouse OAS, Pkr and M×1. To obtain quantitative data, HPRT real-time PCR was duplexed with ISG PCR. A standard curve was calculated using known amounts of IFN-stimulated mouse PBLs. All data are shown as expression relative to internal HPRT expression.
Results shown are fold expression relative to HPRT gene expression. […] The data shown is the average expression from 5 different animals/group.
Data shown is fold expression over HPRT expression from livers of mice. Similar data was obtained from blood and spleens of mice.

adenovirus = assay type: cell-based; settings: A549 cells
BVDV = BVDV CPE inhibition assay in MDBK cells; assay type: cell-based; settings: MDBK bovine kidney cells
Method: IFNα and RIBAVIRIN® were used as positive controls. Test sample were added at the time of viral infection.

influenza virus = assay type: cell-based; settings: Influenza (type A [H3N2])
coxsackie virus = assay type: cell-based; settings: Coxsackie B4 virus, KB cells
[3] = Maden-Darby Canine Kidney cells

B1: IL-29: human IL-29, previously designated zcyto21, SEQ ID NO:4 (protein, listed as Homo sapiens)
chain: MAAAWTVVLVTLVLGLAVAGPVPTSKPTTTGKGCHIGRFKSLSPQELASFKKARDALEESLKLKNWSCSSPVFPGNWDLRLLQVRERPVALEAELALTLKVLEAAAGPALEDVLDQPLHTLHHILSQLQACIQPQPTAGPRPRGRLHHWLHRLQEAPKKESAGCLEASVTFNLFRLLTRDLKYVADGNLCLRTSTHPEST
modifications: SIGNAL (1)...(19)
EC50 Visual (parainfluenza virus): >10 µg/mL
IC50 Visual (parainfluenza virus): >10 µg/mL
CRF2-4 mRNA normalized to HPRT (IL-28RA mRNA): 3.01
IFNAR2 mRNA normalized to HPRT (IL-28RA mRNA): 2.53
IL-28RA mRNA normalized to HPRT (IL-28RA mRNA): 2.28
EC50 Visual (west nile virus): 0.032 ng/mL
IC50 Visual (west nile virus): >10 µg/mL
EC50 NR [1]: 0.05 µg/mL
IC50 NR [1]: >10 µg/mL
EC50 NR (vaccinia virus): >10 µg/mL
IC50 NR (vaccinia virus): >10 µg/mL
time of peak expression of ISGs after injection ([2]; C57BL/6 mice): 1 to 6 h
ISG gene expression (OAS, Pkr, Mx1) in the livers, spleen and blood of mice ([2]; C57BL/6 mice, i.p or i.v, 10 μg-250 μg): induced ISG gene expression
OAS (24 hr) ([2]; injection 10 μg): 3.7
OAS (24 hr) ([2]; injection 50 μg): 4.2
OAS (24 hr) ([2]; injection 250 μg): 6
OAS- 1 hr ([2]; mouse blood): 12 fold expression relative to HPRT gene expression
OAS-6 hr ([2]; mouse blood): 18 fold expression relative to HPRT gene expression
OAS-24 hr ([2]; mouse blood): 11 fold expression relative to HPRT gene expression
OAS-48 hr ([2]; mouse blood): 10 fold expression relative to HPRT gene expression
OAS- 1 hr ([2]; mouse liver): 2.5 fold expression relative to HPRT gene expression
OAS-6 hr ([2]; mouse liver): 4 fold expression relative to HPRT gene expression
OAS-24 hr ([2]; mouse liver): 2.5 fold expression relative to HPRT gene expression
OAS-48 hr ([2]; mouse liver): 2.8 fold expression relative to HPRT gene expression
OAS- 1 hr ([2]; mouse spleen): 4 fold expression relative to HPRT gene expression
OAS-6 hr ([2]; mouse spleen): 6 fold expression relative to HPRT gene expression
OAS-24 hr ([2]; mouse spleen): 3.2 fold expression relative to HPRT gene expression
OAS-48 hr ([2]; mouse spleen): 3.2 fold expression relative to HPRT gene expression
EC50 Visual (adenovirus): >10 µg/mL
IC50 Visual (adenovirus): >10 µg/mL
IC50 inhibition of cell death induced by BVDV (BVDV): 0.19 µg/mL
EC50 NR (influenza virus; [3]): >10 µg/mL
IC50 NR (influenza virus; [3]): >10 µg/mL
EC50 NR (influenza virus; Vero cells): 2 µg/mL
IC50 NR (influenza virus; Vero cells): >10 µg/mL
EC50 NR (coxsackie virus): >10 µg/mL
IC50 NR (coxsackie virus): >10 µg/mL
